In patent US20060134788 one finds activity (fluorescent cells) data, which are given here for two sequences.

For this data set, the system named is T1, MJ1 integrase (phage phiFC1) (Enterococcus phage phiFC1).
T1 sequence: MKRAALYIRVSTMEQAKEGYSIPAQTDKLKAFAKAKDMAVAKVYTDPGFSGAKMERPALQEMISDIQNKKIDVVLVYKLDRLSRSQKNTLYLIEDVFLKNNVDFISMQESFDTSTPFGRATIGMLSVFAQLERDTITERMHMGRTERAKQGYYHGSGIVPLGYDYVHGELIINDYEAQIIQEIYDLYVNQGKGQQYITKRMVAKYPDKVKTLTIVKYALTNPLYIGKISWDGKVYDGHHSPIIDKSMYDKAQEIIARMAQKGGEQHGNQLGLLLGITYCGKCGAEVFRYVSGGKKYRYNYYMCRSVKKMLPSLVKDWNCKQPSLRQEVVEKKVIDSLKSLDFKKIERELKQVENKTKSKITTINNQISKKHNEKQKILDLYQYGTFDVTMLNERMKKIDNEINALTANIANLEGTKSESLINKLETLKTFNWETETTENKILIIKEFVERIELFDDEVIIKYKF
Put plainly: cell_activity. Conditions: 396 cells without MJ1, FACS 72 h.

Under “attB x attP integration in 293T cells”, “CGGCCATTGAATTAGGGTGTCGAATTTATCAAAGTAGTCAAATCAAATTTGGCAAAGTTACGTCCAGTCAACAAGTCGCTCAACGATTACTCCAAGAGATGAAGGGGCTGCAACAAGAACATTTAATTTGTATTTACTTGAATACCAAGAATGACATTATCCAACAGAAAACGATTTTCAAAGGATCACTGAATCAAAGTATTGCTCATCCACGCGAAATTTTTCGGGAAGCGGTTAAATATTCTTCTGCTCGCATACTATTAGCTCATAATCATCCATCTGGCAATCCG (double strand) [attB 290 bp]” had an activity (fluorescent cells) of 1240.

Consider “GAAGATCTTGTTCTCGAGCATAGTCTCCTTCAAGTTTTGTTATATCTGATAATAGAGACTTTTCTTTTTGTTGTAAACTATTGATTGACAAATCTGGTCCTCCTTTAAAATATATAATTAATATTGGTTTAATTATACCATTCTATAGGTAAGAACAGTAATATGACCAAATTTAAATATCTTTTTATGCACTAATCAAAGTTTTCCTTACAAGCATTTNTTCAATTACGAGTTGATTTCTTTTATTCAAATGACCATAGACAGCTAGTTCAGATTTTTCGGGTAGCATTAGTAACATATTTGCTAATTCGTATTTGGAGACGATACAGTTTATAGTTTCGTCCTGTGTTACTAATGAGAATCGAACTAGCATTTTTGGGTACATACTTAACATTCTAATCTTTTCAACTACTCCTACATAATTAGTTTTCATAATATCGGCCTCCTAGTAATACAATTATACCGAATGCATGTTCGTATTGTCTATAGGTTTGTATAAATGTAATATTTTAGGTATATGATTTTGTTTATTAGTGTAAATAACACTATGTACCTAAAATTTATATTTAATAATTACCTCATCATCAAATAGTTCTATACGTTCAACAAACTCTTTGATGATAAGGATTTTATTTTCTGTAGTTTCAGTTTCCCAATTAAAAGTTTTTAACGTTTCAAGCTTATTAATTAATGACTCACTTTTGGTACCTTCTAAGTTTGCTATATTGGCAGTTAACGC (double strand) [attP 739 bp]”, for which, where the note is “attP x attB integration in 293T cells”, the activity (fluorescent cells) turned out to be 1240.
